From patent US20080226675A1

Tests used:
[1] = target: mutant A3G D128K, cmyc-tagged (human) (UniProt Q9HC16); test: cell-based or functional assay
[2] = target: Apolipoprotein B mRNA-editing enzyme-catalytic polypeptide-like 3G (A3G), wild type, cmyc-tagged (human) (UniProt Q9HC16); test: cell-based or functional assay

Substance	infectivity of HIV-GFP produced from D3GFPD128K-carrying 293T cells in the presence of HIV-1 Vif, percent of control [1]	inhibition of HIV-GFP replication (GFP+ 293T cells by flow cytometry) by pD3GFPD128K in the presence of HIV-1 Vif [1]	infectivity of HIV-GFP produced from D3GFP-carrying 293T cells in the presence of HIV-1 Vif, percent of control [2]	percent green fluorescent 293T cells after infection with D3GFPD128K vector produced in the presence of SIVmac Vif [1]	percent green fluorescent 293T cells after infection with D3GFP vector produced in the presence of SIVmac Vif [2]
HIV-1 viral infectivity factor (Vif)	1 % of control	90%	89 % of control	–	–
macaque simian immunodeficiency virus Vif (SIVmac Vif)	–	–	–	26%	24%
